Measured values reported in article PMC8750214.

Key:
[1] = flow cytometry of surface 4-1BB, Jurkat; settings: glycan lost; control: wild type
[2] = immunoblot of total 4-1BB, Jurkat; settings: glycan lost; control: wild type

| Substance | localisation_or_trafficking [1] | expression_or_secretion [2] |
| --- | --- | --- |
| 4-1BB (CD137/TNFRSF9): N138Q | decreases | no change |
| 4-1BB (CD137/TNFRSF9): N149Q | no change |  |
